Assay [1] has as its target Peptide 1593 (…) (Mycobacterium tuberculosis).
The target is the same in assay [2]. Nature of the assay: SPR (Biacore), IgG amine-coupled, peptide as analyte. A general note: In SPR one partner is held on a chip, and binding of the other changes the refractive index at the surface.
Assay [3] has the same target. This is another data set of the same source.
Assay [4] has the same target. Nature of the assay: ELISA, Fab supernatant on coated peptide. (ELISA stands for enzyme-linked immunosorbent assay.)

Values joined by “and” are separate entries in the source; they are usually repeats but may differ in a detail not shown here. Identical values can stand only once. Like-named read-outs stand apart in the source and are kept apart here.

B1: 65D3 mutant IgG variant 1 (S55W&G64K-VH + S57T-VL) (antibody)
heavy: QSLEESGGRLVTPGGSLTLTCTVSGFSLSTHDISWVRQAPGKGLEWIGVIARRGWTYYASWAKKRFTISKTSTTVDLKITSPTIEDTATYFCAREEFDFWGQGTLVTVSSGQPKAPSVFPLAPCCGDTPSSTVTLGCLVKGYLPEPVTVTWNSGTLTNGVRTFPSVRQSSGLYSLSSVVSVTSSSQPVTCNVAHPATNTKVDKTVAPSTCSKPTCPPPELLGGPSVFIFPPKPKDTLMISRTPEVTCVVVDVSQDDPEVQFTWYINNEQVRTARPPLREQQFNSTIRVVSTLPIAHQDWLRGKEFKCKVHNKALPAPIEKTISKARGQPLEPKVYTMGPPREELSSRSVSLTCMINGFYPSDISVEWEKNGKAEDNYKTTPAVLDSDGSYFLYSKLSVPTSEWQRGDVFTCSVMHEALHNHYTQKSISRSPGK
light: AVLTQTASPVSAAVGGTVTISCQSSQSVYNNKELSWFQQKPGQPPKLLISYASTLATGVPSRFKGSGSGTQFTLTISDLECDDAATYYCLGGYASTIDMWAFGGGTEVVVKGDPVAPTVLIFPPAADQVATGTVTIVCVANKYFPDVTVTWEVDGTTQTTGIENSKTPQNSADCTYNLSSTLTLTSTQYNSHKEYTCKVTQGTTSVVQSFNRGDC
B1: in assay [1], the Kd stood at 2.7 nM. Further, in assay [2], the Kd came out at 2.6 nM, the koff stood at 0.00027 s⁻¹ and the association rate constant (kon) was 104000 M⁻¹ s⁻¹.

B2: chimeric Fab antibody of 65D3 (wild type) (Fab, V domains shown)
VH: QSLEESGGRLVTPGGSLTLTCTVSGFSLSTHDISWVRQAPGKGLEWIGVIARRGSTYYASWAKGRFTISKTSTTVDLKITSPTIEDTATYFCAREEFDFWGQGTLVTVSS
VL: AVLTQTASPVSAAVGGTVTISCQSSQSVYNNKELSWFQQKPGQPPKLLISYASTLASGVPSRFKGSGSGTQFTLTISDLECDDAATYYCLGGYASTIDMWAFGGGTEVVVK
Regarding B2, the OD450 nm (single well) in assay [3] was 0.879 and 0.794. Also, in assay [4], the OD450 at 0.00390625 ug/ml coated antigen was 0.133 OD450 and 0.147 OD450; the OD450 at 0.0078125 ug/ml coated antigen was 0.319 OD450 and 0.341 OD450; the OD450 at 0.00953125 ug/ml coated antigen (so in the source) is 0.084 OD450; the OD450 at 0.015625 ug/ml coated antigen was 0.73 OD450 and 0.789 OD450. For the same molecule, in assay [4], the OD450 at 0.03125 ug/ml coated antigen is 1.21 OD450 and 1.37 OD450; the OD450 at 0.0625 ug/ml coated antigen was 1.71 OD450 and 1.8 OD450; the OD450 at 0.125 ug/ml coated antigen is 1.94 OD450 and 2.04 OD450; the OD450 at 0.25 ug/ml coated antigen is 2.18 OD450 and 2.23 OD450. Also, in assay [4], the OD450 at 0.5 ug/ml coated antigen was 2.27 OD450 and 2.25 OD450; the OD450 at 1 ug/ml coated antigen was 2.3 OD450 and 2.31 OD450.

B3: 65D3 mutant IgG variant 3 (S55W-VH + VL) (antibody)
heavy: QSLEESGGRLVTPGGSLTLTCTVSGFSLSTHDISWVRQAPGKGLEWIGVIARRGWTYYASWAKGRFTISKTSTTVDLKITSPTIEDTATYFCAREEFDFWGQGTLVTVSSGQPKAPSVFPLAPCCGDTPSSTVTLGCLVKGYLPEPVTVTWNSGTLTNGVRTFPSVRQSSGLYSLSSVVSVTSSSQPVTCNVAHPATNTKVDKTVAPSTCSKPTCPPPELLGGPSVFIFPPKPKDTLMISRTPEVTCVVVDVSQDDPEVQFTWYINNEQVRTARPPLREQQFNSTIRVVSTLPIAHQDWLRGKEFKCKVHNKALPAPIEKTISKARGQPLEPKVYTMGPPREELSSRSVSLTCMINGFYPSDISVEWEKNGKAEDNYKTTPAVLDSDGSYFLYSKLSVPTSEWQRGDVFTCSVMHEALHNHYTQKSISRSPGK
VL: AVLTQTASPVSAAVGGTVTISCQSSQSVYNNKELSWFQQKPGQPPKLLISYASTLASGVPSRFKGSGSGTQFTLTISDLECDDAATYYCLGGYASTIDMWAFGGGTEVVVK
In the case of B3, in assay [2], the dissociation constant (Kd) was determined as 2.03 nM, the koff is 0.00026 s⁻¹ and the kon stood at 128000 M⁻¹ s⁻¹.

By Kd is commonly meant the concentration at which binding is half-saturated. Read a low Kd as tighter binding. Usually koff stands for a measure of how fast the partners let go of each other. What is called kon is the second-order rate constant of association. Low readings indicate slower complex formation, high ones faster complex formation.
